This is an account of results in patent publication US9365620B2, “Methods for treating pain” (NoNO NC., priority 2008, dated 2016).

One test deals with N-type calcium channels (Mus musculus, UniProt O55017). The class given is cell-based, Swiss mice.
The target in another test is T1, IL-8RB (Homo sapiens, UniProt P25025).
T1 sequence (P25025 1-360): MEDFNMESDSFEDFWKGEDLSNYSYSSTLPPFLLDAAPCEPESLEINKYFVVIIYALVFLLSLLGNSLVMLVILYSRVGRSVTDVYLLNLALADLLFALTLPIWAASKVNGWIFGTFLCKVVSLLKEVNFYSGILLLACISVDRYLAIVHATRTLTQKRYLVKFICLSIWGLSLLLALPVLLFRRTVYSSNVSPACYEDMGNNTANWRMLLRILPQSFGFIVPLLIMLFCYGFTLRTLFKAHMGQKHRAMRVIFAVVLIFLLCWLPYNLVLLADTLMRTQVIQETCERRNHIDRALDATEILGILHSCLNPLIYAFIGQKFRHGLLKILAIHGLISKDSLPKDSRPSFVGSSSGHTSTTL
The test can be described thus: Competitive binding assay, IL-8/IL-8RB. The settings on record: peptide at 10 μM.

Take “FGRKKRRQRRRKLSSIESDV (synthetic 1993 peptide F-Tat-NR2B9c) [Peptide 1993, variant in which the Y residue at position 1 of Tat-NR2B9c was mutated to F]”: in the test with N-type calcium channels, the “Ca^2+ current shown as a percentage” value is given as 91+/−1.6% and the “inhibition of N-type calcium channel activity” value is listed as “no significant inhibition”.
“YGRKKRRQRRRKLSSIESDV [Tat-NR2B9c] (Synthetic peptide Tat-NR2B9c) [chimeric peptide of a standard tat peptide and …]”: in the test with N-type calcium channels, the “Ca^2+ current shown as a percentage” value is listed as 68+/−1.7%, the “frequency (use) dependence of block of Ca^2+ currents” value is “not frequency dependent” and the “voltage dependence of inhibition of Ca^2+ current” value is “voltage-independent manner”. In the test with IL-8RB, the “inhibition of IL-8/IL-8RB” value is on record as 80%.
